Assay results as given in paper PMC7718258.

Molecular target: Methanocaldococcus jannaschii Bud32 (Methanocaldococcus jannaschii) (UniProt Q58530)
Sequence (Q58530 whole entry): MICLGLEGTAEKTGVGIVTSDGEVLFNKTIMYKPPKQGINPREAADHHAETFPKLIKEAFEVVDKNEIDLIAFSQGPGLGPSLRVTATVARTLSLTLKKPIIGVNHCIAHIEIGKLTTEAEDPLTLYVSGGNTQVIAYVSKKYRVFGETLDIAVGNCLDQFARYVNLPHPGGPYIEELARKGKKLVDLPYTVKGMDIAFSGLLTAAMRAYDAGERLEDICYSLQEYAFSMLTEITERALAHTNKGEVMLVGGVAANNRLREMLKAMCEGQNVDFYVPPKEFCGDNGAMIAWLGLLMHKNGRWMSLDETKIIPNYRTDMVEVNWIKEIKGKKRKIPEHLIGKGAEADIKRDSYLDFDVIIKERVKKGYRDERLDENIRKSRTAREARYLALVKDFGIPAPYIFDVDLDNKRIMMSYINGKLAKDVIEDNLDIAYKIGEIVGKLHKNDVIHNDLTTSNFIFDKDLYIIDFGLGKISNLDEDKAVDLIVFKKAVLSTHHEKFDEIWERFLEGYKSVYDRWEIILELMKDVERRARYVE

B1: Methanocaldococcus jannaschii Cgi121 (natural protein)
chain: MIIRGIRGARINNEIFNLGLKFQILNADVVATKKHVLHAINQAKTKKPIAKSFWMEILVRASGQRQIHEAIKIIGAKDGNVCLICEDEETFRKIYELIGGEIDDSVLEINEDKERLIREIFKIRGFGNVVERVLEKIALIELKKE
ATPase activity of mjBud32 (ADP Glo assay), potentiation by mjCgi121: 10 fold
